Results published in publication PMC9818667.

B1: VALSSLRP (peptide)
peptide: VALSSLRP
B2: … (peptide)
peptide: QFQPGFSSS
B3: … (peptide)
peptide: TTPSYVAFTDTER
B4: … (peptide)
peptide: STGEAFVQFASQEIAEK
B5: … (peptide)
peptide: NPDDITNEEYGEFYK

Molecular target: T1, angiotensin-converting enzyme (ACE) from rabbit lung (rabbit) (UniProt P12822)
T1 sequence: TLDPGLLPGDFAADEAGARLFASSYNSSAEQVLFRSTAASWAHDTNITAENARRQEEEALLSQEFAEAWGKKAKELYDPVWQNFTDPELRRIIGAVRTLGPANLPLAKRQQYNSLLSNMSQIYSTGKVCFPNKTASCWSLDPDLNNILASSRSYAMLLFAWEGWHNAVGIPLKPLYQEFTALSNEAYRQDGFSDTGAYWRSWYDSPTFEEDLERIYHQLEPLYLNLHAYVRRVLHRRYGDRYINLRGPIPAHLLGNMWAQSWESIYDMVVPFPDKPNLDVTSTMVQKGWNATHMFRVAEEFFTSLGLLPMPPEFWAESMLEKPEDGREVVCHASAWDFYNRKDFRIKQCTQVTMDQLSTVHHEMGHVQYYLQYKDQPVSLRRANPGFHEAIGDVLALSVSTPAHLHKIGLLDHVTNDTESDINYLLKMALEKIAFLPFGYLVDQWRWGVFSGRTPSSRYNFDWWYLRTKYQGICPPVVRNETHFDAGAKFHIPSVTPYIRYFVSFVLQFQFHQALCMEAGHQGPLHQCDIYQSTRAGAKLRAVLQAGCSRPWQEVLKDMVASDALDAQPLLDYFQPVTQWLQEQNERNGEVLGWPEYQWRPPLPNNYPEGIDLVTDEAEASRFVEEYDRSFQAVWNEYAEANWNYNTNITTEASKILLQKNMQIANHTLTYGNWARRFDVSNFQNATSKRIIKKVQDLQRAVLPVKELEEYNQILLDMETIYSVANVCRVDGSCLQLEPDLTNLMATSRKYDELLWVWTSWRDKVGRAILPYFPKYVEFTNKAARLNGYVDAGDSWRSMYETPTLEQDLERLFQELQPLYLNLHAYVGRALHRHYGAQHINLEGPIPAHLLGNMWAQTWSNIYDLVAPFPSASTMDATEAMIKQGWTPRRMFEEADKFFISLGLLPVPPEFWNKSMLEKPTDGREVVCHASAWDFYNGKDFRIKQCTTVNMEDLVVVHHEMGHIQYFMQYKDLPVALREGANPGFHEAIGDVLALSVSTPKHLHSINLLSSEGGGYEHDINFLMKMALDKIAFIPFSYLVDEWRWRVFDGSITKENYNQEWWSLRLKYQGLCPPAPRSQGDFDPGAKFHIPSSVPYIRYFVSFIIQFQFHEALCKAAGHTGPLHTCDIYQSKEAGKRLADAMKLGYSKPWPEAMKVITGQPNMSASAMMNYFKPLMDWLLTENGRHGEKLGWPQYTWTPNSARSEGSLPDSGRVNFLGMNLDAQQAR

| Binder | ACE inhibitory activity (substrate HHL, hippuric acid by HPLC), peptide at 1 mg/mL [%] | IC50 of ACE inhibitory activity (substrate HHL, hippuric acid by HPLC) [µg/mL] |
| --- | --- | --- |
| B1 | 91.7 | 39 |
| B2 | 40.9 |  |
| B3 | 26.7 |  |
| B4 | 1.57 |  |
| B5 | 2.81 |  |
